Reference: US8748182B2, “Mutant proteins and methods for producing them” (Heptares Therapeutics Limited, priority 2007, dated 2014)
Positions count from the first letter of the chain named. Names may count otherwise.

B1: F358A: NTR point mutant (protein, UniProt P20789 1-424, looked up, variant F358A)
Neurotensin receptor type 1: MHLNSSVPQGTPGEPDAQPFSGPQSEMEATFLALSLSNGSGNTSESDTAGPNSDLDVNTDIYSKVLVTAIYLALFVVGTVGNSVTAFTLARKKSLQSLQSTVHYHLGSLALSDLLILLLAMPVELYNFIWVHHPWAFGDAGCRGYYFLRDACTYATALNVASLSVERYLAICHPFKAKTLMSRSRTKKFISAIWLASALLAIPMLFTMGLQNRSGDGTHPGGLVCTPIVDTATVKVVIQVNTFMSFLFPMLVISILNTVIANKLTVMVHQAAEQGRVCTVGTHNGLEHSTFNMTIEPGRVQALRHGVLVLRAVVIAFVVCWLPYHVRRLMFCYISDEQWTTFLFDFYHYFYMLTNALAYVSSAINPILYNLVSANFRQVFLSTLACLCPGWRHRRKKRPTFSRKPNSMSSNHAFSTSATRETLY
B2: 1116A: NTR point mutant (Ile 116) (protein, UniProt P20789 1-424, looked up, variant I116A)
Neurotensin receptor type 1: B1 Neurotensin receptor type 1 with I116A, A358F
B3: S108A: NTR point mutant (protein, UniProt P20789 1-424, looked up, variant S108A)
Neurotensin receptor type 1: B1 Neurotensin receptor type 1 with S108A, A358F
B4: M181A: NTR point mutant (protein, UniProt P20789 1-424, looked up, variant M181A)
Neurotensin receptor type 1: B1 Neurotensin receptor type 1 with M181A, A358F
B5: R392A: NTR point mutant (protein, UniProt P20789 1-424, looked up, variant R392A)
Neurotensin receptor type 1: B1 Neurotensin receptor type 1 with A358F, R392A
B6: D113A: NTR point mutant (protein, UniProt P20789 1-424, looked up, variant D113A)
Neurotensin receptor type 1: B1 Neurotensin receptor type 1 with D113A, A358F
B7: G209A: NTR point mutant (protein, UniProt P20789 1-424, looked up, variant G209A)
Neurotensin receptor type 1: B1 Neurotensin receptor type 1 with G209A, A358F
B8: L205A: NTR point mutant (protein, UniProt P20789 1-424, looked up, variant L205A)
Neurotensin receptor type 1: B1 Neurotensin receptor type 1 with L205A, A358F
B9: L72A: NTR point mutant (protein, UniProt P20789 1-424, looked up, variant L72A)
Neurotensin receptor type 1: B1 Neurotensin receptor type 1 with L72A, A358F
B10: A120L: NTR point mutant (protein, UniProt P20789 1-424, looked up, variant A120L)
Neurotensin receptor type 1: B1 Neurotensin receptor type 1 with A120L, A358F
B11: A356L: NTR point mutant (protein, UniProt P20789 1-424, looked up, variant A356L)
Neurotensin receptor type 1: B1 Neurotensin receptor type 1 with A356L, A358F
B12: P399A: NTR point mutant (protein, UniProt P20789 1-424, looked up, variant P399A)
Neurotensin receptor type 1: B1 Neurotensin receptor type 1 with A358F, P399A
B13: Y351A: NTR point mutant (protein, UniProt P20789 1-424, looked up, variant Y351A)
Neurotensin receptor type 1: B1 Neurotensin receptor type 1 with Y351A, A358F

Assay: Thermostability of neurotensin receptor (NTR) mutants (3H-neurotensin binding)
Type: physicochemical
Conditions: Ligand(+) format
Procedure: FIG. 12 Flow chart showing the two different assay formats of ligand (+) and ligand (−) used to determine receptor thermostablity.
3. Mutants tested for thermostability by heating in the absence of the agonist were re-tested using a slightly different assay where the mutants were heated in the presence of ^3H-neurotensin (Ligand(+) format in FIG. 12). […] All of these also have increased thermostability. • 5. Preferred combinations are • a. Nag7m F358A+A86L+1260A+F342A Tm 51° C. (neurotensin bound) • b. Nag7n F358A+H103A+1260A+F342A Tm 51° C. (neurotensin bound) • Wildtype NTR has a Tm of 35° C. with neurotensin bound.

Question: For B1, which “thermostability, heated in the presence of 3H-neurotensin” value is on record?
Answer: improved thermostability

Same assay, conditions: heated in the absence of the agonist

Question: Which “thermostability, 3H-neurotensin (agonist) binding after the heating step” value (shortened to “thermostability, 3H-neurotensin”) does the source give for B2 here?
Answer: small but significant increase in thermostability

Question: With B1 as the molecule, how does the “thermostability, 3H-neurotensin” value read?
Answer: small but significant increase in thermostability

Question: Which “thermostability, 3H-neurotensin” value does the source give for B3 here?
Answer: small but significant increase in thermostability

Question: For B4, which “thermostability, 3H-neurotensin” value is on record?
Answer: small but significant increase in thermostability

Question: With B5 as the molecule, how does the “thermostability, 3H-neurotensin” value read?
Answer: small but significant increase in thermostability

Question: For B6, which “thermostability, 3H-neurotensin” value is on record?
Answer: small but significant increase in thermostability

Question: For B7, which “thermostability, 3H-neurotensin” value is on record?
Answer: small but significant increase in thermostability

Question: For B8, which “thermostability, 3H-neurotensin” value is on record?
Answer: small but significant increase in thermostability

Question: Which “thermostability, 3H-neurotensin” value does the source give for B9 here?
Answer: small but significant increase in thermostability

Question: For B10, which “thermostability, 3H-neurotensin” value is on record?
Answer: small but significant increase in thermostability

Question: For B11, which “thermostability, 3H-neurotensin” value is on record?
Answer: small but significant increase in thermostability

Question: Which “thermostability, 3H-neurotensin” value does the source give for B12 here?
Answer: small but significant increase in thermostability

Question: Which “thermostability, 3H-neurotensin” value does the source give for B13 here?
Answer: small but significant increase in thermostability
